Laboratory results reported in US20220275053A1, “MODIFIED […] PEPTIDE LIGANDS” (BicycleTx Limited, priority 2019, published 2022).
*1 amine or outer side, *2 acyl side, *3 side chain or, on linkers, in order; H or OH if unused. Bridges are numbered along the chain shown (N, C = ends). [ ]: non-standard residue; d: D form. TATA = O=C(CC[*:1])N1CN(C(=O)CC[*:2])CN(C(=O)CC[*:3])C1; tBuAla = CC(C)(C)C[C@H](N)C(=O)O; Nle = CCCC[C@H](N)C(=O)O

Biological target: T1, CD137 (Homo sapiens, UniProt Q07011)
T1 construct: Human peripheral blood mononuclear cells (PBMCs) were isolated from buffy coats from two donors; endogenous in cells
Test: Fluorescent multimers human T-cell competition (receptor occupancy) assay with BCY7340 as labelling reagent
Assay type: binding
Conditions: unlabelled multimer titrated, 30 minutes at room temperature; 10 nM BCY7340 label; FIG. 5
Procedure: Human PBMCs were isolated from fresh buffy coats from two donors according to standard protocols. CD8+ T cells were then isolated from the PBMCs by negative magnetic bead selection with a MACS CD8+ T cell isolation kit (negative bead selection) according to the manufacturer's protocol (Miltenyi Biotec). Purified CD8+ T cells were then stimulated for 72 hours in plates coated with CD3 antibody (1 μg/ml) in R10 media (RPMI1640+10% FBS+1× Pen-Strep). Cells were then incubated with a range of concentrations of unlabelled CD137 multimer for 30 minutes at room temperature in 2% FBS. Cells were then washed and stained for FACS analysis. Briefly, cells were stained in 1× Live/Dead BV510 for 15 minutes, washed, and then surface stained with a primary antibody cocktail (CD8-BV785, CD3-BV605, and CD137-PECy5) that included a saturating concentration (10 nM) of BCY7340. Cells were incubated for 30 minutes at room temperature, washed, and fixed in 2% PFA. Cells were run on the BD FACSCelesta and FCS files were analyzed in FlowJo. Cells were gated on Single/Live/Lymphocytes/CD8+(or CD3+)/CD137+ or CD137−. The Alexa Fluor 488 geometric mean of the CD137+ population is shown.

T1 sequence (Q07011 24-255): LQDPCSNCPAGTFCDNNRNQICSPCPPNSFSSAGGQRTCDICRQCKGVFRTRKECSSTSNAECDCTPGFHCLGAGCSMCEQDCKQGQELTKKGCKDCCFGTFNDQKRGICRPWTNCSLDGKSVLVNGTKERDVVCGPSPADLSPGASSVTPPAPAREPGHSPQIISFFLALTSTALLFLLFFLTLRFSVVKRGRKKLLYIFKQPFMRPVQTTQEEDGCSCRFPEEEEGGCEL

Substance: BCY8945: Non-modified CD137 multimer: 4 x BCY8927, hinge A, SA n=23, attachment Lys(PYA)3 (Ac-C[tBuAla]PK[dA]PYCFADPY[Nle]CA-NH2; linker 1-8-15 via TATA; not fully specified (residue 4); also: tetramer: 4 peptides on central hinge moiety A via spacer SA n=23)
- level of free/unbound CD137 receptor on human T cells (BCY7340 binding): dose responsive decrease in unbound CD137 receptor
